Measured values: the RNAGym collection of RNA variant scans (doi:10.1021/acssynbio.7b00057)

B1: Pistol ribozyme (parent)
chain: GGGUCGUUGUUCCAUAAUCGCGUGGAUAUGGCACGCAAGUUUCUACCGGGCACCGUAAAUGUCCGACUGGAGCCGUUCGGGCGGCUAUAAACAGACCUCAGGCCCGAAGCGUGGCGGCACCUGCCGCCGGUGGUAAAAAAGAUCGGAAGAGCACACGUCU

Variants of: B1
Assay: aptazyme ON/OFF ratio, guanine; higher = stronger switching; co-transcriptional cleavage with and without guanine

Row | Variant | aptazyme ON/OFF ratio
1 | U7A U8A G9C U10G C12A C13A | 1.18
2 | U7A U8A G9C U10G C12A C13U | 1.27
3 | U7A U8A G9C U10A U11C C12U C13A | 1.13
4 | U7A U8A G9C U10A U11C C12U C13G | 1.19
5 | U7A U8A G9C U10A U11C C12U C13U | 1.11
6 | U7A U8A G9C U10G U11G C12U C13G | 1.15
7 | U7A U8A G9C U10G U11G C12U C13U | 1.18
8 | U7A U8A G9C U10G U11G C12U C13A | 1.17
9 | U7A U8A G9C U10C U11C C12G | 1.05
10 | U7A U8A G9C U10C U11C C12U | 1.02
11 | U7A U8A G9C U10C U11C C12A | 1.05
12 | U7A U8A G9C U10A U11A C13A | 1.23
13 | U7A U8A G9C U10A U11A C13U | 1.27
14 | U7A U8A G9C U10A U11A C13G | 1.09
15 | U7A U8A G9U U10A U11A | 1.44
16 | U7A U8A G9U U10A U11G | 1.38
17 | U7A U8A G9U U10A U11C | 1.08
18 | U7A U8A G9C U10G U11A C12G C13G | 1.21
19 | U7A U8A G9C U10G U11A C12G C13U | 1.13
20 | U7A U8A G9C U10G U11A C12G C13A | 1.26
21 | U7A U8A G9C U10A U11G C12A C13U | 1.08

Row | Variant | aptazyme ON/OFF ratio
22 | U7A U8A G9C U10A U11G C12A C13A | 1.07
23 | U7A U8A G9C U10A U11G C12A C13G | 1.18
24 | U7A U8A G9C U10C U11A C12U | 1.07
25 | U7A U8A G9C U10C U11A C12A | 1.06
26 | U7A U8A G9C U10C U11A C12G | 1.06
27 | U7A U8A G9C U10A U11C C12A | 1.13
28 | U7A U8A G9C U10A U11C C12U | 1.05
29 | U7A U8A G9C U10A U11C C12G | 1.16
30 | U7A U8A G9U U10A U11A C12A | 1.22
31 | U7A U8A G9U U10A U11A C12G | 1.23
32 | U7A U8A G9U U10A U11A C12U | 1.34
33 | U7A U8A G9C U10G U11G C12U | 1.39
34 | U7A U8A G9C U10G U11G C12G | 1.56
35 | U7A U8A G9C U10G U11G C12A | 1.76
36 | U7A U8A G9C U10G U11C C12U C13U | 1.24
37 | U7A U8A G9C U10G U11C C12U C13G | 1.19
38 | U7A U8A G9C U10G U11C C12U C13A | 1.15
39 | U7A U8A G9C U10C U11C C12U C13U | 1.05
40 | U7A U8A G9C U10C U11C C12U C13A | 1.01
41 | U7A U8A G9C U10C U11C C12U C13G | 1.02
42 | U7A U8A G9C U10G U11C C12G | 1.27

Row | Variant | aptazyme ON/OFF ratio
43 | U7A U8A G9C U10G U11C C12A | 1.81
44 | U7A U8A G9C U10G U11C C12U | 1.13
45 | U7A U8A G9U C13G | 1.05
46 | U7A U8A G9U C13A | 1.16
47 | U7A U8A G9U C13U | 1.21
48 | U7A U8A G9U U10A U11C C12A C13A | 1.11
49 | U7A U8A G9U U10A U11C C12A C13U | 1.14
50 | U7A U8A G9U U10A U11C C12A C13G | 1.08
51 | U7A U8A G9C U10G U11C C13A | 1.09
52 | U7A U8A G9C U10G U11C C13U | 1.04
53 | U7A U8A G9C U10G U11C C13G | 1.04
54 | U7A U8A G9C U10C C12U C13A | 1.02
55 | U7A U8A G9C U10C C12U C13U | 1.07
56 | U7A U8A G9C U10C C12U C13G | 1.1
57 | U7A U8A G9U C12G C13A | 1.19
58 | U7A U8A G9U C12G C13U | 1.47
59 | U7A U8A G9U C12G C13G | 1.27
60 | U7A U8A G9U U10A C12A C13A | 1.34
61 | U7A U8A G9U U10A C12A C13U | 1.15
62 | U7A U8A G9U U10A C12A C13G | 1.24
63 | U7A U8A G9U U10C C12A C13U | 1.16

Row | Variant | aptazyme ON/OFF ratio
64 | U7A U8A G9U U10C C12A C13A | 1.11
65 | U7A U8A G9U U10C C12A C13G | 1.15
66 | U7A U8A G9C U10C C12G C13G | 1.05
67 | U7A U8A G9C U10C C12G C13A | 0.99
68 | U7A U8A G9C U10C C12G C13U | 1.06
69 | U7A U8A G9C U10G U11C C12G C13G | 1.39
70 | U7A U8A G9C U10G U11C C12G C13U | 1.22
71 | U7A U8A G9C U10G U11C C12G C13A | 1.36
72 | U7A U8A G9C U10G C13G | 1.29
73 | U7A U8A G9C U10G C13U | 1.56
74 | U7A U8A G9C U10G C13A | 1.24
75 | U7A U8A G9C U11G C12G C13G | 1.32
76 | U7A U8A G9C U11G C12G C13U | 1.16
77 | U7A U8A G9C U11G C12G C13A | 1.31
78 | U7A U8A G9C U10C U11G | 0.815
79 | U7A U8A G9C U10C U11C | 0.984
80 | U7A U8A G9C U10C U11A | 0.719
81 | U7A U8A G9C U10A U11C C13U | 1.04
82 | U7A U8A G9C U10A U11C C13G | 1.05
83 | U7A U8A G9C U10A U11C C13A | 1.07
84 | U7A U8A G9C U11C C12G C13A | 1.06
